*1 amine or outer side, *2 acyl side, *3 side chain or, on linkers, in order; H or OH if unused. Where no end group is shown, it is not given here. Side-chain parts run from the residue outwards. [ ]: non-standard residue; d: D form. The star is where a group is joined. C20 diacid = O=C(O)CCCCCCCCCCCCCCCCCCC(=O)*; γGlu = O=C(O)[C@H](CCC(=O)[*:2])N[*:1]; NMeI = CC[C@H](C)[C@H](NC)C(=O)O; Pentanoyl = CCCCC(=O)*; AEEA = NCCOCCOCC(=O)O; Aib = CC(C)(N)C(=O)O
Assays:
[1] = target: Rat CRF2 a (corticotropin-releasing factor receptor 2), on the A7R5 rat aortic smooth muscle cell line (rat, UniProt P47866 20-411); assay: cell-based or functional assay
Rat CRF2 a (corticotropin-releasing factor receptor 2), on the A7R5 rat aortic smooth muscle cell line, sequence (P47866 20-411): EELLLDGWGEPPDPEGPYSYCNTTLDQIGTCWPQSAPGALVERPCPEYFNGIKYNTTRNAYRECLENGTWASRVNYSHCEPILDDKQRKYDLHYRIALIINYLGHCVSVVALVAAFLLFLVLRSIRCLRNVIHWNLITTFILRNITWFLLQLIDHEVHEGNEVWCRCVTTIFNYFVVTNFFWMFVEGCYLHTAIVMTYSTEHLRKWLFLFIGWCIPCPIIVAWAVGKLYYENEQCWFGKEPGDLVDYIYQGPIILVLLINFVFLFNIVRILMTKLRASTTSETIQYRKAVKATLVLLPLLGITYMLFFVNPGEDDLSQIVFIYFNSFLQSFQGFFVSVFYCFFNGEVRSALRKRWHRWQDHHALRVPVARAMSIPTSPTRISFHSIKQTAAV

[2] = target: T1, CRF1R (corticotropin-releasing factor receptor 1), on the CRF1R-overexpression CHO-K1 cell line clone 2 (UniProt P34998 24-415, limits assumed); assay: cell-based or functional assay
T1 sequence (looked up): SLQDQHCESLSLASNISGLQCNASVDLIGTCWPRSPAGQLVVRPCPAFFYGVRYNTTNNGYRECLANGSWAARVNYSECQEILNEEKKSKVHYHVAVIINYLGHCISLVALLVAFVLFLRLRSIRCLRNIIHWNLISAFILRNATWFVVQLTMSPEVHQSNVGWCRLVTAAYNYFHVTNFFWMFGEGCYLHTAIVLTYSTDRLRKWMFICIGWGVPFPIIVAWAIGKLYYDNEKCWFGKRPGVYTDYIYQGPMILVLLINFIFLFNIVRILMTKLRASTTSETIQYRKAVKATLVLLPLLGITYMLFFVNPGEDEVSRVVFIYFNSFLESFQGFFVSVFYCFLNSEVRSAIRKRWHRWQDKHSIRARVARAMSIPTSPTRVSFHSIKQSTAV

B1: peptide of SEQ ID NO: 235 (peptide)
peptide: Pentanoyl-VLSLD[dV]PIKLK([AEEA-γGlu-C20 diacid])KILLEQEKQKKQREQAETN[Aib]QILAQV-NH2
SMILES: CCCCC(=O)N[C@H](C(=O)N[C@@H](CC(C)C)C(=O)N[C@@H](CO)C(=O)N[C@@H](CC(C)C)C(=O)N[C@@H](CC(=O)O)C(=O)N[C@@H](C(=O)N1CCC[C@H]1C(=O)N[C@H](C(=O)N[C@@H](CCCCN)C(=O)N[C@@H](CC(C)C)C(=O)N[C@@H](CCCCNC(=O)COCCOCCNC(=O)CC[C@H](NC(=O)CCCCCCCCCCCCCCCCCCC(=O)O)C(=O)O)C(=O)N[C@@H](CCCCN)C(=O)N[C@H](C(=O)N[C@@H](CC(C)C)C(=O)N[C@@H](CC(C)C)C(=O)N[C@@H](CCC(=O)O)C(=O)N[C@@H](CCC(N)=O)C(=O)N[C@@H](CCC(=O)O)C(=O)N[C@@H](CCCCN)C(=O)N[C@@H](CCC(N)=O)C(=O)N[C@@H](CCCCN)C(=O)N[C@@H](CCCCN)C(=O)N[C@@H](CCC(N)=O)C(=O)N[C@@H](CCCNC(=N)N)C(=O)N[C@@H](CCC(=O)O)C(=O)N[C@@H](CCC(N)=O)C(=O)N[C@@H](C)C(=O)N[C@@H](CCC(=O)O)C(=O)N[C@H](C(=O)N[C@@H](CC(N)=O)C(=O)NC(C)(C)C(=O)N[C@@H](CCC(N)=O)C(=O)N[C@H](C(=O)N[C@@H](CC(C)C)C(=O)N[C@@H](C)C(=O)N[C@@H](CCC(N)=O)C(=O)N[C@H](C(N)=O)C(C)C)[C@@H](C)CC)[C@@H](C)O)[C@@H](C)CC)[C@@H](C)CC)C(C)C)C(C)C
In the case of B1, the “EC50 [nM] 0% HSA (cAMP, A7R5 rat aortic smooth muscle cells)” value (shortened to “EC50 [nM] 0% HSA”) [1] is reported as 0.17 nM, the “EC50 [nM] (cAMP, CRF1R-overexpression CHO-K1 cells)” value [2] is reported as greater than 250 nM and the “Emax (% I) (cAMP, 100% = Sauvagine at 100 nM)” value (“Emax (% I)” for short) [2] is reported as 27 % I.

B2: peptide of SEQ ID NO: 233 (peptide)
peptide: [NMeI]VLSLD[dV]PIKLK([AEEA-γGlu-C20 diacid])KILLEQEKQKEQREQAETN[Aib]QILAQV-NH2
modifications: N-terminus assumed
SMILES: CC[C@H](C)[C@H](NC)C(=O)N[C@H](C(=O)N[C@@H](CC(C)C)C(=O)N[C@@H](CO)C(=O)N[C@@H](CC(C)C)C(=O)N[C@@H](CC(=O)O)C(=O)N[C@@H](C(=O)N1CCC[C@H]1C(=O)N[C@H](C(=O)N[C@@H](CCCCN)C(=O)N[C@@H](CC(C)C)C(=O)N[C@@H](CCCCNC(=O)COCCOCCNC(=O)CC[C@H](NC(=O)CCCCCCCCCCCCCCCCCCC(=O)O)C(=O)O)C(=O)N[C@@H](CCCCN)C(=O)N[C@H](C(=O)N[C@@H](CC(C)C)C(=O)N[C@@H](CC(C)C)C(=O)N[C@@H](CCC(=O)O)C(=O)N[C@@H](CCC(N)=O)C(=O)N[C@@H](CCC(=O)O)C(=O)N[C@@H](CCCCN)C(=O)N[C@@H](CCC(N)=O)C(=O)N[C@@H](CCCCN)C(=O)N[C@@H](CCC(=O)O)C(=O)N[C@@H](CCC(N)=O)C(=O)N[C@@H](CCCNC(=N)N)C(=O)N[C@@H](CCC(=O)O)C(=O)N[C@@H](CCC(N)=O)C(=O)N[C@@H](C)C(=O)N[C@@H](CCC(=O)O)C(=O)N[C@H](C(=O)N[C@@H](CC(N)=O)C(=O)NC(C)(C)C(=O)N[C@@H](CCC(N)=O)C(=O)N[C@H](C(=O)N[C@@H](CC(C)C)C(=O)N[C@@H](C)C(=O)N[C@@H](CCC(N)=O)C(=O)N[C@H](C(N)=O)C(C)C)[C@@H](C)CC)[C@@H](C)O)[C@@H](C)CC)[C@@H](C)CC)C(C)C)C(C)C
With B2 the “EC50 [nM] 0% HSA” value [1] was 0.37 nM, the “EC50 [nM] (cAMP, CRF1R-overexpression CHO-K1 cells)” value [2] was greater than 250 nM and the “Emax (% I)” value [2] was 8 % I.

B3: peptide of SEQ ID NO: 234 (peptide)
peptide: [NMeI]VLSLD[dV]PIKLK([AEEA-γGlu-C20 diacid])KILLEQEKQK[Aib]QREQAETN[Aib]QILAQV-NH2
modifications: N-terminus assumed
SMILES: CC[C@H](C)[C@H](NC)C(=O)N[C@H](C(=O)N[C@@H](CC(C)C)C(=O)N[C@@H](CO)C(=O)N[C@@H](CC(C)C)C(=O)N[C@@H](CC(=O)O)C(=O)N[C@@H](C(=O)N1CCC[C@H]1C(=O)N[C@H](C(=O)N[C@@H](CCCCN)C(=O)N[C@@H](CC(C)C)C(=O)N[C@@H](CCCCNC(=O)COCCOCCNC(=O)CC[C@H](NC(=O)CCCCCCCCCCCCCCCCCCC(=O)O)C(=O)O)C(=O)N[C@@H](CCCCN)C(=O)N[C@H](C(=O)N[C@@H](CC(C)C)C(=O)N[C@@H](CC(C)C)C(=O)N[C@@H](CCC(=O)O)C(=O)N[C@@H](CCC(N)=O)C(=O)N[C@@H](CCC(=O)O)C(=O)N[C@@H](CCCCN)C(=O)N[C@@H](CCC(N)=O)C(=O)N[C@@H](CCCCN)C(=O)NC(C)(C)C(=O)N[C@@H](CCC(N)=O)C(=O)N[C@@H](CCCNC(=N)N)C(=O)N[C@@H](CCC(=O)O)C(=O)N[C@@H](CCC(N)=O)C(=O)N[C@@H](C)C(=O)N[C@@H](CCC(=O)O)C(=O)N[C@H](C(=O)N[C@@H](CC(N)=O)C(=O)NC(C)(C)C(=O)N[C@@H](CCC(N)=O)C(=O)N[C@H](C(=O)N[C@@H](CC(C)C)C(=O)N[C@@H](C)C(=O)N[C@@H](CCC(N)=O)C(=O)N[C@H](C(N)=O)C(C)C)[C@@H](C)CC)[C@@H](C)O)[C@@H](C)CC)[C@@H](C)CC)C(C)C)C(C)C
In the case of B3, the “EC50 [nM] 0% HSA” value [1] is reported as 0.05 nM, the “EC50 [nM] (cAMP, CRF1R-overexpression CHO-K1 cells)” value [2] is reported as greater than 250 nM and the “Emax (% I)” value [2] is reported as 15 % I.

B4: peptide of SEQ ID NO: 232 (peptide)
peptide: Ac-IVLSLD[dV]PIKLK([AEEA-γGlu-C20 diacid])KILLEQEKQKAQREQAETN[Aib]QILAQV-NH2
SMILES: CC[C@H](C)[C@H](NC(C)=O)C(=O)N[C@H](C(=O)N[C@@H](CC(C)C)C(=O)N[C@@H](CO)C(=O)N[C@@H](CC(C)C)C(=O)N[C@@H](CC(=O)O)C(=O)N[C@@H](C(=O)N1CCC[C@H]1C(=O)N[C@H](C(=O)N[C@@H](CCCCN)C(=O)N[C@@H](CC(C)C)C(=O)N[C@@H](CCCCNC(=O)COCCOCCNC(=O)CC[C@H](NC(=O)CCCCCCCCCCCCCCCCCCC(=O)O)C(=O)O)C(=O)N[C@@H](CCCCN)C(=O)N[C@H](C(=O)N[C@@H](CC(C)C)C(=O)N[C@@H](CC(C)C)C(=O)N[C@@H](CCC(=O)O)C(=O)N[C@@H](CCC(N)=O)C(=O)N[C@@H](CCC(=O)O)C(=O)N[C@@H](CCCCN)C(=O)N[C@@H](CCC(N)=O)C(=O)N[C@@H](CCCCN)C(=O)N[C@@H](C)C(=O)N[C@@H](CCC(N)=O)C(=O)N[C@@H](CCCNC(=N)N)C(=O)N[C@@H](CCC(=O)O)C(=O)N[C@@H](CCC(N)=O)C(=O)N[C@@H](C)C(=O)N[C@@H](CCC(=O)O)C(=O)N[C@H](C(=O)N[C@@H](CC(N)=O)C(=O)NC(C)(C)C(=O)N[C@@H](CCC(N)=O)C(=O)N[C@H](C(=O)N[C@@H](CC(C)C)C(=O)N[C@@H](C)C(=O)N[C@@H](CCC(N)=O)C(=O)N[C@H](C(N)=O)C(C)C)[C@@H](C)CC)[C@@H](C)O)[C@@H](C)CC)[C@@H](C)CC)C(C)C)C(C)C
With B4 the “EC50 [nM] 0% HSA” value [1] was 0.4 nM, the “EC50 [nM] (cAMP, CRF1R-overexpression CHO-K1 cells)” value [2] was greater than 250 nM and the “Emax (% I)” value [2] was 13 % I.

— patent US20260001928A1 (CORTERIA PHARMACEUTICALS, priority 2022, published 2026)
